From paper doi:10.1101/2020.12.10.419556 come the findings set out here.

Test in all cases: loss of red fluorescence after photoconversion
Assay [1] concerns the target PhoCl1 empty barrel fragment (residues 1-231), from pBAD/HisB constructs.
For assay [2], the target named is PhoCl2f empty barrel fragment (residues 1-231).
Assay [3] deals with PhoCl1.5f-MVL empty barrel fragment (residues 1-231).

Take “PhoCl C-terminal peptide fragment (residues 232-242), from pBAD/HisB PhoCl variants”: the values for the dissociation t1/2 in assay [1] and in assay [2] were 9.5 min and 1.27 min, respectively. The same substance returned a red fluorescence remaining after dissociation in assay [3] of 60%.
